Patent US20230242658A1 (published 2023)
Where a chain is given by its changes, count along the chain named.

B1: PR007142 (bispecific antibody)
light: DIQMTQSPSTLSASVGDRVTVTCRASQSIYIWLAWYQQKPGKAPNLLIYKASSLETGVPSRFSGSGSGTEFTLTISSLQPDDFATYYCQQYYGSSRTFGQGTKVEIKRTVAAPSVFIFPPSDEQLKSGTASVVCLLNNFYPREAKVQWKVDNALQSGNSQESVTEQDSKDSTYSLSSTLTLSKADYEKHKVYACEVTHQGLSSPVTKSFNRGEC
heavy: EVQLVESGGGLVQPGGSLRLSCAASGFTFSSYWMSWVRQAPGKGLEWVANIKQEGSEKYYVDSVKGRFTISRDNAKNSLYLQMNSLRAEDTAVYYCARDRAVAGAFDIWGQGTMVTVSSASTKGPSVFPLAPSSKSTSGGTAALGCLVKDYFPEPVTVSWNSGALTSGVHTFPAVLQSSGLYSLSSVVTVPSSSLGTQTYICNVNHKPSNTKVDKKVEPKSCDKTHTCPPCPAPEAAGAPSVFLFPPKPKDTLMISRTPEVTCVVVDVSHEDPEVKFNWYVDGVEVHNAKTKPREEQYNSTYRVVSVLTVLHQDWLNGKEYKCKVSNKALPAPIEKTISKAKGQPREPQVYTLPPSREEMTKNQVSLTCLVKGFYPSDIAVEWESNGQPENNYKTTPPVLDSDGSFFLYSKLTVDKSRWQQGNVFSCSVMHEALHNHYTQKSLSLSPGGGSGGSEVQLVESGGGLVKPGGSLRLSCAASGFTFSDYYMSWIRQAPGKGLEWVSYISNNGSTIYYADSVKGRFTISRDNAKNSLYLQMNSLRAEDTAVYYCARVRPGGSGNYWDWFDPWGQGTMVTVSS
B2: PR007138 (bispecific antibody)
light: B1 light
heavy: B1 heavy with A477V, A478T, S489N, L499Q, N507G, M573P
B3: PR007145 (bispecific antibody)
light: B1 light
heavy: B1 heavy with N507R, N508S, M573L
B4: PR007146 (bispecific antibody)
light: B1 light
heavy: EVQLVESGGGLVQPGGSLRLSCAASGFTFSSYWMSWVRQAPGKGLEWVANIKQEGSEKYYVDSVKGRFTISRDNAKNSLYLQMNSLRAEDTAVYYCARDRAVAGAFDIWGQGTMVTVSSASTKGPSVFPLAPSSKSTSGGTAALGCLVKDYFPEPVTVSWNSGALTSGVHTFPAVLQSSGLYSLSSVVTVPSSSLGTQTYICNVNHKPSNTKVDKKVEPKSCDKTHTCPPCPAPEAAGAPSVFLFPPKPKDTLMISRTPEVTCVVVDVSHEDPEVKFNWYVDGVEVHNAKTKPREEQYNSTYRVVSVLTVLHQDWLNGKEYKCKVSNKALPAPIEKTISKAKGQPREPQVYTLPPSREEMTKNQVSLTCLVKGFYPSDIAVEWESNGQPENNYKTTPPVLDSDGSFFLYSKLTVDKSRWQQGNVFSCSVMHEALHNHYTQKSLSLSPGGGSGGSEVQLVESGGGLVKPGGSLRLSCAASGFTFSDYYMSWVRQAPGKGLEWVSYISSSGSTIDYADSVKGRFTISRDNAKNSLFLEMNSLRAEDTAVYYCAREREEVAGTLDFDNWGQGTLVTVSS
B5: PR007141 (bispecific antibody)
light: B1 light
heavy: B4 heavy with A477V, V491F, S507G, S510T, F534Y, E536Q, E556P
B6: PR007139 (bispecific antibody)
light: B1 light
heavy: B4 heavy with V491I, F534Y, E536Q, F563Y
B7: PR007149 (bispecific antibody)
light: B1 light
heavy: B1 heavy with A477T, A478T, S489N, I491V, M573P
B8: PR007143 (bispecific antibody)
light: B1 light
heavy: B4 heavy with A477V, V491F, S507G, S510T, F534Y, E536Q, E556A, L571P
B9: PR007135 (bispecific antibody)
light: B1 light
heavy: B4 heavy with V491F, S507G, T511I, F534Y, E536Q, A551S, E556A, N565Y
B10: PR000701 (bispecific antibody)
chain 1: not shown
chain 2: EVQLVESGGGLVQPGGSLRLSCAASGFTFSSYWMSWVRQAPGKGLEWVANIKQEGSEKYYVDSVKGRFTISRDNAKNSLYLQMNSLRAEDTAVYYCARDRAVAGAFDIWGQGTMVTVSSASTKGPSVFPLAPSSKSTSGGTAALGCLVKDYFPEPVTVSWNSGALTSGVHTFPAVLQSSGLYSLSSVVTVPSSSLGTQTYICNVNHKPSNTKVDKKVEPKSC
chain 3: not shown
B11: PR003551 (bispecific antibody)
light: B1 light
heavy: EVQLVESGGGLVQPGGSLRLSCAASGFTFSSYWMSWVRQAPGKGLEWVANIKQEGSEKYYVDSVKGRFTISRDNAKNSLYLQMNSLRAEDTAVYYCARDRAVAGAFDIWGQGTMVTVSSASTKGPSVFPLAPSSKSTSGGTAALGCLVKDYFPEPVTVSWNSGALTSGVHTFPAVLQSSGLYSLSSVVTVPSSSLGTQTYICNVNHKPSNTKVDKKVEPKSCDKTHTCPPCPAPEAAGGPSVFLFPPKPKDTLMISRTPEVTCVVVDVSHEDPEVKFNWYVDGVEVHNAKTKPREEQYNSTYRVVSVLTVLHQDWLNGKEYKCKVSNKALGAPIEKTISKAKGQPREPQVYTLPPSREEMTKNQVSLTCLVKGFYPSDIAVEWESNGQPENNYKTTPPVLDSDGSFFLYSKLTVDKSRWQQGNVFSCSVMHEALHNHYTQKSLSLSPGEPKSSDKTHTPPPPPRTEVQLLESGGGLVQPGGSLRLSCAASGFIFSNFAMTWVRQPPEKGLKWVSSINGSGFNTYYTDSVKGRFTISRDNSRNTLYLQMNRLTAEDTAVYFCAKEGSSETDDHYYNVDVWGQGTTVTVSS

target: T1, human PD-L1 on CHO-K1 cells (human, UniProt Q9NZQ7 19-290); test: FACS; MDA-MB-231 cells
T1 sequence (Q9NZQ7 19-290): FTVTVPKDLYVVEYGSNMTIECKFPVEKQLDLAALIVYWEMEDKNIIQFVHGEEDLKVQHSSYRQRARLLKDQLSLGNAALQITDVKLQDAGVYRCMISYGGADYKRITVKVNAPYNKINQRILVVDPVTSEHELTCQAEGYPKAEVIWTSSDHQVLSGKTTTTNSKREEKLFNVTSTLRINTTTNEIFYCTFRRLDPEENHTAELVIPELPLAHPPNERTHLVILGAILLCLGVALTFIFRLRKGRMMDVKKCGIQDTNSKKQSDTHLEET

EC50 [nM] | Binder
0.263 | B1
0.202 | B2
0.286 | B3
0.327 | B4
0.331 | B5
0.257 | B6
0.206 | B7
0.315 | B8
0.299 | B9

target: T2, human 4-1BB on CHO-K1 cells (human, UniProt Q07011 24-255); test: FACS

EC50 [nM] | Binder
10.2 | B10
3.15 | B11
12.9 | B9

target: T2, human 4-1BB on CHO-K1 cells; test: FACS; remark: another data set of the same source

EC50 [nM] | Binder
23.8 | B1
3.15 | B2
22.4 | B3
6.95 | B4
4.62 | B5
6.84 | B6
2.36 | B7
3.4 | B8

target: T1, human PD-L1 on CHO-K1 cells; test: FACS

EC50 [nM] | Binder
1.72 | B10
1.29 | B11
